From patent US20230295348A1 (NOVIMMUNE, published 2023)
Values belong to the binder of their own block, whether it stands above or below them.

Assays:
Assay in all cases: direct ELISA, biotinylated recombinant protein on streptavidin plates
human recombinant IL-2Rβ = target: T1, human recombinant IL-2Rβ (human, UniProt P14784 27-239, limits assumed)
T1 construct: Biotinylated and captured on streptavidin plates in the ELISA; also called IL-2Rb; IL2Rb
T1 sequence (looked up): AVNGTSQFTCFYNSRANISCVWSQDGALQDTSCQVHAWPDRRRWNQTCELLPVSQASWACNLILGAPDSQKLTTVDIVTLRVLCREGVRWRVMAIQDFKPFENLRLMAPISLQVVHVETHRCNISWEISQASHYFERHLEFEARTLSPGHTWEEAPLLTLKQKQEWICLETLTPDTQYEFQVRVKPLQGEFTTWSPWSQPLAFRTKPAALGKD

human recombinant HER2 = target: T2, human recombinant HER2 (human, UniProt P04626 23-652)
T2 construct: Biotinylated and captured on streptavidin plates in the ELISA; also called human epidermal growth factor receptor 2

human recombinant IL-2Rγ = target: T3, human recombinant IL-2Rγ (human, UniProt P31785 23-262, limits assumed)
T3 construct: Biotinylated and captured on streptavidin plates in the ELISA; also called IL-2Rg; IL2Rg
T3 sequence (looked up): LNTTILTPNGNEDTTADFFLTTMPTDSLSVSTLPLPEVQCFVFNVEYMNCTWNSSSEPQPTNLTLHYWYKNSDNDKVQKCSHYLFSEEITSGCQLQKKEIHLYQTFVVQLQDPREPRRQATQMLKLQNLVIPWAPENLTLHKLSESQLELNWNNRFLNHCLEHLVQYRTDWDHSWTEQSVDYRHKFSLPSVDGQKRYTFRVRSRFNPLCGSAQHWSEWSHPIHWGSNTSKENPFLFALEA

[1] = target: T4, recombinant Human carcinoembryonic antigen (human, UniProt P06731 35-685, limits assumed)
T4 construct: Irrelevant control protein of the ELISA, biotinylated and captured on streptavidin plates; also called irrelevant protein; CEA
T4 sequence (looked up): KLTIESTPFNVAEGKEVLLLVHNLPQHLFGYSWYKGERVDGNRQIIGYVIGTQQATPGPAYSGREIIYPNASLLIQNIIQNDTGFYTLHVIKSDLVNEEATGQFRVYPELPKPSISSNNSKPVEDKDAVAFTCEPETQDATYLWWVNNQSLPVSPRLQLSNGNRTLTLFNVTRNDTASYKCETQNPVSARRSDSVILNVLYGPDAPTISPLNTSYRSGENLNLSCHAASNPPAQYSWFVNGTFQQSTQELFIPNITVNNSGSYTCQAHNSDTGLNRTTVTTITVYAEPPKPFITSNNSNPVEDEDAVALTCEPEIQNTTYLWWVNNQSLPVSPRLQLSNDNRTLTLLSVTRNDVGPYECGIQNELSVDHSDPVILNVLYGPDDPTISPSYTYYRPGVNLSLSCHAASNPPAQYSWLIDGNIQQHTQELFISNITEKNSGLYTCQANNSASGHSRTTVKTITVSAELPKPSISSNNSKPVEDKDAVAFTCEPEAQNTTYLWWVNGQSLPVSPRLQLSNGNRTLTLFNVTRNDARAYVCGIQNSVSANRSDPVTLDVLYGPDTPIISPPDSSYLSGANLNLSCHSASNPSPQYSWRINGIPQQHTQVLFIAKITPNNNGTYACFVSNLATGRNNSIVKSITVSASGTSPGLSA

B1: AL1N2-28 (bispecific antibody, human IgG1, kappa, lambda, L234A L235A)
heavy: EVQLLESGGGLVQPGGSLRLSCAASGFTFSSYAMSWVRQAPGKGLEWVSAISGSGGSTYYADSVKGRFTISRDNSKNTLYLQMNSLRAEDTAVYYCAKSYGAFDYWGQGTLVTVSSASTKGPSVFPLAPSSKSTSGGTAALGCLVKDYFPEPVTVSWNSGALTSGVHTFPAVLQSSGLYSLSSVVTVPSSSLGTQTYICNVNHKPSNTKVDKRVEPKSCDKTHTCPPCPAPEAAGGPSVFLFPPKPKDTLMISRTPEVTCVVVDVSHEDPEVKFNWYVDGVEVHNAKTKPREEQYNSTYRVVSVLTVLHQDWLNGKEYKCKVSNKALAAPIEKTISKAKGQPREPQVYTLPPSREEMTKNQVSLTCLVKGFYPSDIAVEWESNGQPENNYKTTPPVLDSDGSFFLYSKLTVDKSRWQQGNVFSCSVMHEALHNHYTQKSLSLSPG
light 1: not shown
light 2: SYVLTQPPSVSVAPGKTARITCGGNTIGSTVVHWYQQKPGQAPVLVIYFDDARPSGIPERFSGSNSGNTATLTISRVEAGDEADYYCQVWDSFGLSLAPVFGGGTKLTVLGQPKAAPSVTLFPPSSEELQANKATLVCLISDFYPGAVTVAWKADSSPVKAGVETTTPSKQSNNKYAASSYLSLTPEQWKSHRSYSCQVTHEGSTVEKTVAPTECS
notes: κλ-body: common heavy chain, kappa anti-IL2Rβ light chain (AL1), lambda anti-HER2 light chain (N2-28); also called AL1N2-28/N
binding result (human recombinant IL-2Rβ): binds
binding result (human recombinant HER2): binds

B2: AL2N2-28 (bispecific antibody, human IgG1, kappa, lambda, L234A L235A)
heavy: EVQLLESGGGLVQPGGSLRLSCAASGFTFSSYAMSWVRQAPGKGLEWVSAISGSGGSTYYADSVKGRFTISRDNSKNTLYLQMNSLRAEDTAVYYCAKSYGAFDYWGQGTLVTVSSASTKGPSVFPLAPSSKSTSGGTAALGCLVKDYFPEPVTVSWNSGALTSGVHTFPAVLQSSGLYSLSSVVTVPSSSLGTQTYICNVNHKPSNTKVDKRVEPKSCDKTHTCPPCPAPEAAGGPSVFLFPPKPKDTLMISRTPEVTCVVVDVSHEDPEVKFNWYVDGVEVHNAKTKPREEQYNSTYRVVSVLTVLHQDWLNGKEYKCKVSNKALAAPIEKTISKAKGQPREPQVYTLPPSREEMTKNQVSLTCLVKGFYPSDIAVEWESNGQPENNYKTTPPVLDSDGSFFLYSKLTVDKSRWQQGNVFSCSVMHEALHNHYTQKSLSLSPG
light 1: not shown
light 2: B1 light 2
notes: κλ-body: common heavy chain, kappa anti-IL2Rβ light chain (AL2), lambda anti-HER2 light chain (N2-28); also called AL2N2-28/N
binding result (human recombinant IL-2Rβ): binds
binding result (human recombinant HER2): binds

B3: AL5N2-28 (bispecific antibody, human IgG1, kappa, lambda, L234A L235A)
heavy: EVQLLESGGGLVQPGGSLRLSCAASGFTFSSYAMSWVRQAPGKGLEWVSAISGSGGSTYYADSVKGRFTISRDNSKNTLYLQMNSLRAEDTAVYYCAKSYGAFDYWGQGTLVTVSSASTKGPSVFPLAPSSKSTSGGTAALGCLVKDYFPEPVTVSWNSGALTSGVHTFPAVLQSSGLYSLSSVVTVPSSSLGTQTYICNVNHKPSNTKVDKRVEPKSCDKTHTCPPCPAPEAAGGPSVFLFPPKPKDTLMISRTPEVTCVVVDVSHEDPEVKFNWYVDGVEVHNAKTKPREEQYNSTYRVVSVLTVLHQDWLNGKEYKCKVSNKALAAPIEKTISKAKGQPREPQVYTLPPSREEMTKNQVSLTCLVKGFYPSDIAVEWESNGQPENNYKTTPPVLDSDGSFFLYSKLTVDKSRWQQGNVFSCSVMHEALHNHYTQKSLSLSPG
light 1: not shown
light 2: B1 light 2
notes: κλ-body: common heavy chain, kappa anti-IL2Rβ light chain (AL5), lambda anti-HER2 light chain (N2-28); also called AL5N2-28/N
binding result (human recombinant IL-2Rβ): binds
binding result (human recombinant HER2): binds

B4: AL4N2-28 (bispecific antibody, human IgG1, kappa, lambda, L234A L235A)
heavy: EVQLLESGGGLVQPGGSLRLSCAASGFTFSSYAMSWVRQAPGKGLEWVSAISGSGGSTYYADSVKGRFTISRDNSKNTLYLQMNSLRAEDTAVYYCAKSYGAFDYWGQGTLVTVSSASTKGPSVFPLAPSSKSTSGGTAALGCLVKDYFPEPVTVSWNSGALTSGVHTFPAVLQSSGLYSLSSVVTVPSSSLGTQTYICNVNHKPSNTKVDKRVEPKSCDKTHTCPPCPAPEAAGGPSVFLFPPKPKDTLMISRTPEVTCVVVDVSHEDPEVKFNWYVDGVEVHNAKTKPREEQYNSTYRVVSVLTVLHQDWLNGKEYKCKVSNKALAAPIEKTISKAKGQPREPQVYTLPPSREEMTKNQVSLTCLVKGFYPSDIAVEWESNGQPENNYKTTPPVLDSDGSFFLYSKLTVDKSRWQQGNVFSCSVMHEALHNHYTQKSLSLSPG
light 1: DIQMTQSPSSLSASVGDRVTITCRASQSIDEYLNWYQQKPGKAPKLLIYEASKLQSGVPSRFSGSGSGTDFTLTISSLQPEDFATYYCQQDGAMDTYATFGQGTKVEIKRTVAAPSVFIFPPSDEQLKSGTASVVCLLNNFYPREAKVQWKVDNALQSGNSQESVTEQDSKDSTYSLSSTLTLSKADYEKHKVYACEVTHQGLSSPVTKSFNRGEC
light 2: B1 light 2
notes: κλ-body: common heavy chain, kappa anti-IL2Rβ light chain (AL4), lambda anti-HER2 light chain (N2-28); also called AL4N2-28/N
binding result (human recombinant IL-2Rβ): binds
binding result (human recombinant HER2): binds

Continued, values first:

binding result (human recombinant IL-2Rβ): binds
binding result (human recombinant HER2): binds
B5: AL3N2-28 (bispecific antibody, human IgG1, kappa, lambda, L234A L235A)
heavy: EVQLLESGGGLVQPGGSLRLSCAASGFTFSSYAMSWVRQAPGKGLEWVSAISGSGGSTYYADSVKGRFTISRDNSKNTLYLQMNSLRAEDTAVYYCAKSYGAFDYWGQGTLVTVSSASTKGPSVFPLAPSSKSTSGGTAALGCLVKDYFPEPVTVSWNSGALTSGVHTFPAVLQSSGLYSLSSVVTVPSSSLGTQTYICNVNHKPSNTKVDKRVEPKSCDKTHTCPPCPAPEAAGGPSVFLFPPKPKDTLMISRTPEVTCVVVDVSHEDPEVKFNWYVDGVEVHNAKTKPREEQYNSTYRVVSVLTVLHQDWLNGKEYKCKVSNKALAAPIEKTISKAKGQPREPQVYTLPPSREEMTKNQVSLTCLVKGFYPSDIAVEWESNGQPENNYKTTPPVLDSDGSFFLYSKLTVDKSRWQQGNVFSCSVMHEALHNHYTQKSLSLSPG
light 1: not shown
light 2: B1 light 2
notes: κλ-body: common heavy chain, kappa anti-IL2Rβ light chain (AL3), lambda anti-HER2 light chain (N2-28); also called AL3N2-28/N

binding result (human recombinant IL-2Rβ): binds
binding result (human recombinant IL-2Rγ): binds
binding result [1]: no binding
B6: P1A3×P2C4 (bispecific antibody, V domains shown)
VH 1: QVQLQQWGAGLLKPSETLSLTCAVYGGSFSGYYWSWIRQPPGKGLEWIGEINHSGSTNYNPSLKSRATISVDTSKNQFSLKLSSVTAADTAVYYCATSPGGYSGGYFQHWGQGTLVTVSS
VL 1: not shown
VH 2: EVQLVQSGAEVKKPGSSVKVSCKASGYTFTNYYMHWVRQAPGQGLEWMGAIMPSRGGTSYPQKFQGRVTMTGDTSTSTVYMELSSLRSEDTAVYYCARGEYYYDSSGYYYWGQGTLVTVSS
VL 2: QSALTQPASVSGSPGQSIAISCTGTSSDIGHYDFVSWYQQHPGTAPKLIIYDINNRPSGISNRFSGSKSDNMASLTISGLQPEDEADYYCSAYTSSDTLVFGGGTKLT
notes: anti-IL-2Rβ (P2C4) in the knob arm; also called anti-IL-2Rβ×anti-IL-2Rγ bsAb; IL-2Rβ×IL-2Rγ KiH bsAb

binding result (human recombinant IL-2Rβ): binds
B7: AL4O30 (bispecific antibody, human IgG1, kappa, lambda, L234A L235A)
heavy: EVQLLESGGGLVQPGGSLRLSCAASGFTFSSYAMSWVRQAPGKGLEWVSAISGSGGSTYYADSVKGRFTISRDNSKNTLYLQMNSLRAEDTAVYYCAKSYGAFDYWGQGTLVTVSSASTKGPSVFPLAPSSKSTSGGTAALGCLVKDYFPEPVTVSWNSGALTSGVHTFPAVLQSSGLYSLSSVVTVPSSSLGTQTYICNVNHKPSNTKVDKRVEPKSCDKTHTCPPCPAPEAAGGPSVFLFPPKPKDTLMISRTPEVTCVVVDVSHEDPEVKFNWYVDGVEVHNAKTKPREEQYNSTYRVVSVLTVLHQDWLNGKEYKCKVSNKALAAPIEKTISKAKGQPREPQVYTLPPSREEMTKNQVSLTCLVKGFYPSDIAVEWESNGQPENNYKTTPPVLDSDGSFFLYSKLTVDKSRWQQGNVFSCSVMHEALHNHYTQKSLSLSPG
light 1: B4 light 1
light 2: not shown
notes: κλ-body: common heavy chain, kappa anti-IL2Rβ light chain (AL4), lambda anti-MSLN light chain (O30); also called AL4O30/N

binding result (human recombinant IL-2Rβ): binds
B8: AL4O41 (bispecific antibody, human IgG1, kappa, lambda, L234A L235A)
heavy: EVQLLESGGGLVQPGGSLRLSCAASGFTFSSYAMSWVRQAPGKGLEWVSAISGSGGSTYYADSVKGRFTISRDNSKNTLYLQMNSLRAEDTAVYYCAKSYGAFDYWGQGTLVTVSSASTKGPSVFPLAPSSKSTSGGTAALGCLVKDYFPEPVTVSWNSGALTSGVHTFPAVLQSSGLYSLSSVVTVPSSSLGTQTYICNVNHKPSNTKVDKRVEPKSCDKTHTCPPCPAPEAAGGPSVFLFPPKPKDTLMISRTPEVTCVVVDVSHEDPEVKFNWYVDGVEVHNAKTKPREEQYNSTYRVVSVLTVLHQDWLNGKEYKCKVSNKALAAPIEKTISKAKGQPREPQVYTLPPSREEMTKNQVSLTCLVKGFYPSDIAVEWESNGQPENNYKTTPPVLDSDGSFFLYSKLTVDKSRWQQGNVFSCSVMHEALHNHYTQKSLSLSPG
light 1: B4 light 1
light 2: SYVLTQPPSVSVAPGKTARITCGGNKIGHRAVHWYQQKPGQAPVLVIYYTYERPSGIPERFSGSNSGNTATLTISRVEAGDEADYYCQVWDWYSEGGVVFGGGTKLTVLGQPKAAPSVTLFPPSSEELQANKATLVCLISDFYPGAVTVAWKADSSPVKAGVETTTPSKQSNNKYAASSYLSLTPEQWKSHRSYSCQVTHEGSTVEKTVAPTECS
notes: κλ-body: common heavy chain, kappa anti-IL2Rβ light chain (AL4), lambda anti-MSLN light chain (O41); also called AL4O41/N

binding result (human recombinant IL-2Rβ): binds
B9: AL4O38 (bispecific antibody, human IgG1, kappa, lambda, L234A L235A)
heavy: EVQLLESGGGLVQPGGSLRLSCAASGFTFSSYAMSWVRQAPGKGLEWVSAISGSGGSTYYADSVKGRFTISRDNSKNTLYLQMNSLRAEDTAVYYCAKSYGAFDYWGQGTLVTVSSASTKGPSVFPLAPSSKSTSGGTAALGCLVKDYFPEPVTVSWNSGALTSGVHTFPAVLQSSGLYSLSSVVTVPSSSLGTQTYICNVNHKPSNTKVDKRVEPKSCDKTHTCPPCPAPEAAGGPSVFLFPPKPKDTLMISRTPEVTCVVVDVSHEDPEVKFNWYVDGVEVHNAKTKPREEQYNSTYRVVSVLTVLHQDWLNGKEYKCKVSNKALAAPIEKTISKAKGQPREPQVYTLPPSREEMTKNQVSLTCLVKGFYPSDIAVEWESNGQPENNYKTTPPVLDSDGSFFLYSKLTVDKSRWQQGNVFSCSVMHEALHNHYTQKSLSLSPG
light 1: B4 light 1
light 2: QPVLTQPASLSASPGASASLTCTLRSGINVRDYRIFWYQQKPGSPPQYLLRYKSASDKQQGSGVPSRFSGSKDASANAGILLISGLQSEDEADYYCMIWHHDSEGHAFVFGGGTKLTVLGQPKAAPSVTLFPPSSEELQANKATLVCLISDFYPGAVTVAWKADSSPVKAGVETTTPSKQSNNKYAASSYLSLTPEQWKSHRSYSCQVTHEGSTVEKTVAPTECS
notes: κλ-body: common heavy chain, kappa anti-IL2Rβ light chain (AL4), lambda anti-MSLN light chain (O38); also called AL4O38/N

binding result (human recombinant IL-2Rβ): binds
B10: AL4O35 (bispecific antibody, human IgG1, kappa, lambda, L234A L235A)
heavy: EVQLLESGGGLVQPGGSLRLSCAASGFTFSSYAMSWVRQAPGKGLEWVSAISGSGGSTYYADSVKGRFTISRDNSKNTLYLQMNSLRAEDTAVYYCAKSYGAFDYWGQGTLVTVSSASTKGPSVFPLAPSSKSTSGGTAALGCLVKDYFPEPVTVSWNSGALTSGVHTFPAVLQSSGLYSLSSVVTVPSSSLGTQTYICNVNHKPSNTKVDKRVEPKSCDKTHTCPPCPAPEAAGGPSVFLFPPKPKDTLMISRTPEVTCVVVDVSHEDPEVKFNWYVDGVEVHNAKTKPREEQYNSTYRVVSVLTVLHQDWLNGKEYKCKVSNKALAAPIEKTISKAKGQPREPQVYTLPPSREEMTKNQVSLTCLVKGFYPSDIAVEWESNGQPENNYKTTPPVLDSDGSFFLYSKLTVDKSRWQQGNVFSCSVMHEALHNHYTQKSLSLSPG
light 1: B4 light 1
light 2: QPVLTQPVSLSASPGASVSLTCTLRSDIRVRDYRIFWYQQKPGSPPQYLLRYKTDSDKQQGSGVPSRFSGSKDASANAGILLISGLQSEDEADYYCMIWHRTTGTSLVFGGGTKLTVLGQPKAAPSVTLFPPSSEELQANKATLVCLISDFYPGAVTVAWKADSSPVKAGVETTTPSKQSNNKYAASSYLSLTPEQWKSHRSYSCQVTHEGSTVEKTVAPTECS
notes: κλ-body: common heavy chain, kappa anti-IL2Rβ light chain (AL4), lambda anti-MSLN light chain (O35); also called AL4O35/N
